Experimental findings from patent US20230348605A1 (published 2023) are described below.

Assay [1] concerns the target T1, EIIIB domain of fibronectin.
T1 construct: domain: EIIIB domain; also called recombinantly expressed EIIIB domain of FN
As to the kind of experiment: BLI.

For assay [2], the target named is T2, FN-EIIIB in human patient tissue (PDAC stroma; metastases on a tissue array) (human, UniProt P02751 32-2477).
T2 construct: Endogenous protein in tissue sections; also called EIIIB expressed in human PDAC stroma; stromal FN-EIIIB
T2 sequence (P02751 32-2477): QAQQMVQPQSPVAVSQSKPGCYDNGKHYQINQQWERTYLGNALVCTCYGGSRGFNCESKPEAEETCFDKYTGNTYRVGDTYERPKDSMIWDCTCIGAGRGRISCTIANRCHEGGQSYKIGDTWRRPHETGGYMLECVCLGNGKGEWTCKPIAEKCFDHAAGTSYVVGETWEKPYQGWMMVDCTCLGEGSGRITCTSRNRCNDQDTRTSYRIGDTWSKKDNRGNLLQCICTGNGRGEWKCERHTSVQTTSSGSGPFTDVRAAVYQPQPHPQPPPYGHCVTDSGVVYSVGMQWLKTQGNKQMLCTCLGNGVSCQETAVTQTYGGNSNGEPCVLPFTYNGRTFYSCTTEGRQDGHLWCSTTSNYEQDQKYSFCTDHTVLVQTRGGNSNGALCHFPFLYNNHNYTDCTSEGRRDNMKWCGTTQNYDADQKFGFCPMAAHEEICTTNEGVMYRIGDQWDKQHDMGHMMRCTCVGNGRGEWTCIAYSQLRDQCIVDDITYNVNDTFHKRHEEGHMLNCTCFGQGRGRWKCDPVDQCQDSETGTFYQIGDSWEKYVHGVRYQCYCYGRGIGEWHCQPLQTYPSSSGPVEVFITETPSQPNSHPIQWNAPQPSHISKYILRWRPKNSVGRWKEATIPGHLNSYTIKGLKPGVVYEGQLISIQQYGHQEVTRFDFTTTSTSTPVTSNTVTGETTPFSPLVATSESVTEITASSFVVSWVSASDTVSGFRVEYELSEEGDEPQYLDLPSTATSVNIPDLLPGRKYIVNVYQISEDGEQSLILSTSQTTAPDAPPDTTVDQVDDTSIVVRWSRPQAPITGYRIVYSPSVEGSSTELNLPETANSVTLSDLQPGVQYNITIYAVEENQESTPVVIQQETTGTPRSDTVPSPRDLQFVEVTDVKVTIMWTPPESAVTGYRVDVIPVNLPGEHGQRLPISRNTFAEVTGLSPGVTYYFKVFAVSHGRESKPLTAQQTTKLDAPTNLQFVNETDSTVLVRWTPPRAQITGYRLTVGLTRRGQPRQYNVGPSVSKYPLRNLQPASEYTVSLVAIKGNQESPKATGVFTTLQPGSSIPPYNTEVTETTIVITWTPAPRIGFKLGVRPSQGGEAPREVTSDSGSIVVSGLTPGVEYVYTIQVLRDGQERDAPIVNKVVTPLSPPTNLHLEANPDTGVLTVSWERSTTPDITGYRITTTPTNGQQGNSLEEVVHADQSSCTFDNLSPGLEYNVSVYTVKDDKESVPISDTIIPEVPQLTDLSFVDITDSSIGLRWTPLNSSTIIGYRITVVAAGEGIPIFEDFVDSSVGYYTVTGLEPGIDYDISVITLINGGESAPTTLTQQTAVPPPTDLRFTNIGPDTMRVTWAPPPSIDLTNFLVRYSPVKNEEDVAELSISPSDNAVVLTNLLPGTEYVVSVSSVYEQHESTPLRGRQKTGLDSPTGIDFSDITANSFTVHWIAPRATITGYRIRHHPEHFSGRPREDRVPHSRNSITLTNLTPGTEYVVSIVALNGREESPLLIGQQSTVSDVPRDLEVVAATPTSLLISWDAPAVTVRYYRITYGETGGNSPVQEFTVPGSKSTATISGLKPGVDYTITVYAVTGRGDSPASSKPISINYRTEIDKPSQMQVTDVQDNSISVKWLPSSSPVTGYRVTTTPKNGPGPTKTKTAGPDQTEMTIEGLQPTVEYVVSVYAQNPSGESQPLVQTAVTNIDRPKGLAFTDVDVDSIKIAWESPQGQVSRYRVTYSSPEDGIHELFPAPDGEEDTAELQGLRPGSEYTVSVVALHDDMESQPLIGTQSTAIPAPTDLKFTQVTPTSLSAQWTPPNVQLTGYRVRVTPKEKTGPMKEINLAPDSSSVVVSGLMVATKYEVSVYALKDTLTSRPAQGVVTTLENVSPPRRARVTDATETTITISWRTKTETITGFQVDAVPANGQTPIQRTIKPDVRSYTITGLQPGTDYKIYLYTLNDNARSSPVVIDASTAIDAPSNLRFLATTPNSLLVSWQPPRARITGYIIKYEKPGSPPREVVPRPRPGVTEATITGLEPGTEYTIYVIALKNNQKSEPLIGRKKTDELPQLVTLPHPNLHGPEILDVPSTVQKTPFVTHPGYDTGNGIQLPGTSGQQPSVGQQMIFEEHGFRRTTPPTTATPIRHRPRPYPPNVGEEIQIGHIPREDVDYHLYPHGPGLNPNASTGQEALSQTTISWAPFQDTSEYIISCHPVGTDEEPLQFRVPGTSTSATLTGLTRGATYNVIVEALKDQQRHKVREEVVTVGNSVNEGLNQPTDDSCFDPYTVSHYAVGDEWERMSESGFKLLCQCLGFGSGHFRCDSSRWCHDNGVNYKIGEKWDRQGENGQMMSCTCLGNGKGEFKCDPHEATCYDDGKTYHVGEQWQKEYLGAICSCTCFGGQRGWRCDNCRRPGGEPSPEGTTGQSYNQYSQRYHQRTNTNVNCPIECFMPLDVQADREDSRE
As to the kind of experiment: immunohistochemistry on a multi-organ metastatic tissue array. The text has this: To investigate the expression of EIIIB in metastasis samples from multiple patients, we stained a multi-organ tissue array of samples from various metastatic sites derived from 104 patients with NJB2-biotin. […] In parallel, similar results were obtained with a monoclonal anti-EIIIB antibody (AM3, data not shown). These metastases to multiple organs (21 distinct sites) were derived from 17 different primary sites, including rectum, pancreas, lung, ovary, stomach and thyroid among others (Table 4). Among the EIIIB-positive biopsies, ~32% were metastases to the lymph nodes at the metastatic sites (Table 4). This wide expression of EIIIB at metastatic sites in multiple organs and derived from multiple types of primary tumors further broadens the potential applications of NJB2-based imaging and therapeutic applications.

For assay [3], the target named is T3, fibronectin (FN) containing the EIIIB domain, in the ECM of aortic endothelial cells from control/wild type … (mouse, UniProt P11276 33-2477).
T3 construct: whole, on cells; Protein stood in the cell-derived extracellular matrix, not on the cell membrane; also called EIIIB domain of FN
T3 sequence (P11276 33-2477): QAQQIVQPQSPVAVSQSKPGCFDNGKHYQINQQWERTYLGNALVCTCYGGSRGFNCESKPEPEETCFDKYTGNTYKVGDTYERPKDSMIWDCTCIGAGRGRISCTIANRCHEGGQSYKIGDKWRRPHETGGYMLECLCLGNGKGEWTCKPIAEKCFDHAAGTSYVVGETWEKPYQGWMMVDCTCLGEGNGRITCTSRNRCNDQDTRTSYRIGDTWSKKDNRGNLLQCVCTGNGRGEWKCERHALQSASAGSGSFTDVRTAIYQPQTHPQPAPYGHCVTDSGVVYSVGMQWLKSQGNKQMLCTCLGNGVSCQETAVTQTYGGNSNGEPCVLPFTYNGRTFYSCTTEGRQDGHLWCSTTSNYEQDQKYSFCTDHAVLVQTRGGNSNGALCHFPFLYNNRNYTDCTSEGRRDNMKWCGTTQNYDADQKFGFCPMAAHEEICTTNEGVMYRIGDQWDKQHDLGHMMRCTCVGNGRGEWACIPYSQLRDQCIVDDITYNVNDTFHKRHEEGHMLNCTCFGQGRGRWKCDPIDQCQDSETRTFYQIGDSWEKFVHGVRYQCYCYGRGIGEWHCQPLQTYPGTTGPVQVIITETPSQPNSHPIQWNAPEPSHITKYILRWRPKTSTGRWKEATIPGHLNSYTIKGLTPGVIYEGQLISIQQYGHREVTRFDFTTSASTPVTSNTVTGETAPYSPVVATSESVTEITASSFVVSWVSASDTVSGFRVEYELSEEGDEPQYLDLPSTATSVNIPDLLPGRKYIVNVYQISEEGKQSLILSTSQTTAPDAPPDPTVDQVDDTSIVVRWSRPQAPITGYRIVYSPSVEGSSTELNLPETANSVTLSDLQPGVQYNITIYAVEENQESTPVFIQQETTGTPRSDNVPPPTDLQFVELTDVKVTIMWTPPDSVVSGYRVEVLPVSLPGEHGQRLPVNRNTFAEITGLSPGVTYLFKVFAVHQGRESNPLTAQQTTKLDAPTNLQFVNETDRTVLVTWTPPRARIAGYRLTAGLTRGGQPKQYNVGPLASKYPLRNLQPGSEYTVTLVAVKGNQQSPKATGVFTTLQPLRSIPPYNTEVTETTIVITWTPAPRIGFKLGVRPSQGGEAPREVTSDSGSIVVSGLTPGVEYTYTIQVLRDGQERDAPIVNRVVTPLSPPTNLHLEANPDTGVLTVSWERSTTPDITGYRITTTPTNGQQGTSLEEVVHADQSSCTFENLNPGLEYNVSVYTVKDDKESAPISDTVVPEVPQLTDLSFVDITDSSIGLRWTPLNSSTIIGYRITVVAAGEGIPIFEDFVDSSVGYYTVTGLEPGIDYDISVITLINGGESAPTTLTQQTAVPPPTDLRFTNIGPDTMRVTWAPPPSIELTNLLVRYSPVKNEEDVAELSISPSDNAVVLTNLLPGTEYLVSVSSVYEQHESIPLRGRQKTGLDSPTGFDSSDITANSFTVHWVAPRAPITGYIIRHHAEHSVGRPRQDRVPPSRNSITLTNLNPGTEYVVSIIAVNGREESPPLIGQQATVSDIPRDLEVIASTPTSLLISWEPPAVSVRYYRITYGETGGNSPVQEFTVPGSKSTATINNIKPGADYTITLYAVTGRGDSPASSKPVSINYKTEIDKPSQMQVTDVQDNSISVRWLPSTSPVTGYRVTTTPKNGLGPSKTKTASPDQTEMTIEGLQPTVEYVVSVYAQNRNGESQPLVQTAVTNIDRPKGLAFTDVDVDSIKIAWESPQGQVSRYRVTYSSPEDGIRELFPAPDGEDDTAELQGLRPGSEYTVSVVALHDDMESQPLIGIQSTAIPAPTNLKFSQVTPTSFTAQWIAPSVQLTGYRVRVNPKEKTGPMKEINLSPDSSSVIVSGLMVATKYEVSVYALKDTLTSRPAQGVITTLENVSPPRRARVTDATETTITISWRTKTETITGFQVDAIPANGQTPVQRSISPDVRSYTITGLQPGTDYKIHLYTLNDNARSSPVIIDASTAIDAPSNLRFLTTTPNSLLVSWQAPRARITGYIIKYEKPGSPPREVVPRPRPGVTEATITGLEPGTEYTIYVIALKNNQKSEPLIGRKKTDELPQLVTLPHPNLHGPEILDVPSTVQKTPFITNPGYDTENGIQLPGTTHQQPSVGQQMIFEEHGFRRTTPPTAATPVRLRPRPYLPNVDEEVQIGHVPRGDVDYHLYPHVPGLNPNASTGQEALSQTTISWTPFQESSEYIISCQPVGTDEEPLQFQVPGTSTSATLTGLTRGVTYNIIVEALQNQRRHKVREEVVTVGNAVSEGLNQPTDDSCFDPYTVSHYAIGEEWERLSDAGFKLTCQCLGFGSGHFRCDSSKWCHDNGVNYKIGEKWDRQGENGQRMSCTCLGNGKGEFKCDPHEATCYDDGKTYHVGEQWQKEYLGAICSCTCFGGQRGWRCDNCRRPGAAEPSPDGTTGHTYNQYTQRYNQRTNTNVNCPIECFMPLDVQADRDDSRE
As to the kind of experiment: biotinylated NJB2 detected with streptavidin-Alexa488 on endothelial cells and their ECM. The text has this:
The NJB2 was site-specifically labelled with biotin via sortagging and detected with streptavidin-Alexa488. […] The αEIIIB control was cells stained with mouse monoclonal IgG specific to an epitope in the EIIIB domain of FN. The negative control, C, was unstained cells.

T1 sequence (P02751 1271-1359): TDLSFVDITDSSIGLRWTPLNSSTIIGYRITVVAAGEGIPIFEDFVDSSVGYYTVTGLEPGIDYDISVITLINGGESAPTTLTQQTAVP

B1: NJB2 (VHH)
VHH: QVQLVETGGGLVQAGGSLRLSCAASGSTFSHNAGGWYRQAPEKQRELVAGISSDGNINYADSVKDRFTISRDNASNTMYLQMNNLKPEDTAVYVCNIRGSYGNTYYSRWGQGTQVTVSS
modifications: site-specifically labelled via sortagging (LPETG tag) with biotin, Texas Red or 64Cu in the staining and imaging assays
notes: After sortagging the C-terminus differs (label in place of the residues after LPET); also called VHH NJB2; VHH-NJB2
A word on the Kd: it is the constant that tells how readily two partners part at equilibrium. Lower therefore signals tighter binding. Regarding B1, the Kd in assay [1] was approximately 4 nM. In addition, the binding result in assay [2] and in assay [3] was “binds” throughout.
